Source: US20120058100A1, “MODULATION OF DRUG RELEASE RATE FROM ELECTROSPUN FIBERS” (priority 2006, published 2012)

Test: Release of FITC-BSA from emulsion-electrospun PU, PLA and co-spun fibers in PBS
Type: physicochemical
Description: Polymers were dissolved in organic solvent and emulsified with a H2O/Poly(vinyl alcohol) mixture with the molecule to be released dispersed in the aqueous phase. Polyurethane (PU) was dissolved at 6 wt % in a mixture of chloroform and tetrahydrofuran. PLA was dissolved at 2 wt % in chloroform. Drugs were loaded into the PVA/Water mixture with aqueous volume fractions ranging from 10-20 vol %. Emulsions were loaded into plastic syringe fitted with a blunt tip 18-gauge needle and placed into a syringe pump.
Circular discs were punched out from the aluminum foil and polymer fibers removed from Al-backing. Samples placed in centrifuge tubes individual glass vials with PBS. Samples degraded in at room temperature (20° C.) on a rotisserie. The buffer was sampled at given intervals. Depending on release molecule, different spectrophotometric techniques were used to measure release profiles.
The concentration was determined fluorometrically by measuring […] at λ=495 nm. Samples were placed in 10 ml of PBS and 200 μl of buffer was used to run the assay and not replaced (total amount withdrawn from tube was less than 40% of total volume). Average concentration plotted over 360 hour time course (n=3).

Substance: FITC-BSA: fluorescein isothiocyanate conjugated albumin, a model protein
- duration over which release can be achieved (PU and PLA fibers): ≥ 15 days
- release from meshes of co-spun PLA and PU fibers relative to pure PLA or PU meshes (co-spun PLA and PU fibers): intermediate manner
- release rate relative to doxycycline (electrospun fibers): much slower release rates
